Measured values published in patent US20110064751A1 (Hoffmann-La Roche, published 2011).
Changes are numbered by the printed parent chain. One block for each binder: values may come before it.

How the values were obtained:
[1] = molecular target: T1, Extra Domain B of fibronectin (EDB) (UniProt P02751 1266-1356); assay: BIACORE SPR, EDB immobilized on the chip, analyte at 1.56, 3.125 and 6.25 nM
T1 construct: domain: Extra Domain B; construct not described; also called fibronectin Ectodomain-B

[2] = molecular target: T1, Extra Domain B of fibronectin (EDB); assay: SPR (BIACORE), EDB immobilized on the chip, construct as analyte
[3] = molecular target: T2, A1 domain of tenascin (TNC-A1), immobilized domain of Example 1 (UniProt P24821 1072-1162, limits assumed); assay: SPR (BIACORE), TNC-A1 domain immobilized on the chip
T2 construct: domain: A1; also called TNC-A1 domain
T2 sequence (looked up): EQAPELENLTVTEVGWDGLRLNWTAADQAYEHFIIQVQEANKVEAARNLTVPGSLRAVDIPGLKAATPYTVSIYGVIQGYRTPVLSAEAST

[4] = molecular target: T3, Murine FAP ectodomain + poly-lys-tag + his6-tag (murine, UniProt P97321 27-761); assay: first affinity maturation campaign: phage selections, ELISA and BIACORE kinetic screening
T3 construct: also called mu FAP

[5] = molecular target: T4, Human FAP ectodomain + poly-lys-tag + his6-tag (human, UniProt Q12884 27-760); assay: as above
T4 construct: also called hu FAP

[6] = molecular target: T3, Murine FAP ectodomain + poly-lys-tag + …; assay: SPR (ProteOn XPR36), purified Fab, monovalent binding
[7] = molecular target: T5, Cynomolgus FAP (Cynomolgus); assay: as above
T5 construct: construct not described; also called cyno FAP

[8] = molecular target: T4, Human FAP ectodomain + poly-lys-tag + …; assay: as above
[9] = molecular target: T6, DPPIV expressed on HEK293 or CHO cells (Homo sapiens (Human), UniProt P27487 1-766); assay: binding to DPPIV-expressing HEK293 or CHO cells
T6 construct: also called close homologue of FAP

[10] = molecular target: T7, Human TNC-A1 + avi-tag + his6-tag (human, biotinylated in vivo at the avi-tag); assay: phage display selection and ELISA on biotinylated human TNC-A1
T7 chain: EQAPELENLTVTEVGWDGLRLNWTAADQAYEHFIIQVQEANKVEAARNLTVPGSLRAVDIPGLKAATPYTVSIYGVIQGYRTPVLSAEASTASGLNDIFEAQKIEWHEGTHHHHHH
Procedure: See SEQ ID NO: 59 of Table 5. The antigen was biotinylated in vivo upon expression.
Selections were carried out over 3 rounds using constant antigen concentrations at 100 nM. In round 2, capture of antigen:phage complexes was performed on neutravidin plates instead of streptavidin beads.

[11] = molecular target: T3, Murine FAP ectodomain + poly-lys-tag + …; assay: primary phage selections, ELISA and BIACORE kinetic screening
Procedure: See SEQ ID NOs: 53 and 55 of Table 5. Prior to selections, the antigens were coated into immunotubes at a concentration of either 10 μg/ml or 5 μg/ml, depending on round of selection.
Specific binders were defined as signals 5× higher than background and were identified by ELISA.
ELISA-positive clones were bacterially expressed as 1 mL cultures in 96-well format and supernatants were subjected to a kinetic screening experiment using BIACORE T100.

T1 sequence (P02751 1266-1356 limits assumed): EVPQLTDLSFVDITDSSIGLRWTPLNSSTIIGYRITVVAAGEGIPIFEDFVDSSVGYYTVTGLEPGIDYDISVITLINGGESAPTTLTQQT

Kd [1]: 0.263 nM
koff [1]: 0.000637 s⁻¹
kon [1]: 2.42e+06 M⁻¹ s⁻¹
Kd [2]: 0.26 nM
B1: L19 IgG (L19 antibody in the human IgG1 format) (antibody, V domains shown)
VH: EVQLLESGGGLVQPGGSLRLSCAASGFTFSSFSMSWVRQAPGKGLEWVSSISGSSGTTYYADSVKGRFTISRDNSKNTLYLQMNSLRAEDTAVYYCAKPFPYFDYWGQGTLVTVSS
VL: EIVLTQSPGTLSLSPGERATLSCRASQSVSSSYLAWYQQKPGQAPRLLIYYASSRATGIPDRFSGSGSGTDFTLTISRLEPEDFAVYYCQQTGRIPPTFGQGTKVEIK
notes: Human IgG1 format; also called the IgG

Kd [3]: 2.6 nM
increase of affinity attributed to bivalency (IgG against Fab) [3]: 20 fold
B2: F16 IgG (antibody, V domains shown)
VH: B1 VH with S31R, F32Y, S33G, S50A, S55G, T57S, P99A, F100H, P101N, Y102A
VL: SSELTQDPAVSVALGQTVRITCQGDSLRSYYASWYQQKPGQAPVLVIYGKNNRPSGIPDRFSGSSSGNTASLTITGAQAEDEADYYCNSSVYTMPPVVFGGGTKLTVL
notes: The light chain entry is named generally (F16, light chain); also called the IgG molecule; copies: 2 + 2

binding result [4]: binds
binding result [5]: binds
B3: 4B3 Fab (Fab, V domains shown)
VH: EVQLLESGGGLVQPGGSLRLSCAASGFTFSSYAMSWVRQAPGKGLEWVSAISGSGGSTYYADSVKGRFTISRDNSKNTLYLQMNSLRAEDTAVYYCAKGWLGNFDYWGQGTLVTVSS
VL: B1 VL with S32N, Y51G, S53Y, S54I, T92G, G93Q, R94V
notes: Fab fragment; also called clone 4B3

Kd [3]: 50 nM
B4: F16 Fab fragment (Fab, V domains shown)
VH: B1 VH with S31R, F32Y, S33G, S50A, S55G, T57S, P99A, F100H, P101N, Y102A
VL: SSELTQDPAVSVALGQTVRITCQGDSLRSYYASWYQQKPGQAPVLVIYGKNNRPSGIPDRFSGSSSGNTASLTITGAQAEDEADYYCNSSVYTMPPVVFGGGTKLTVLG
notes: also called monovalent Fab fragment of F16

Kd [6]: 0.125 nM
Kd [7]: 0.99 nM
Kd [8]: 1.6 nM
binding result [9]: no binding
B5: 23C10 Fab (Fab, V domains shown)
VH: EVQLLESGGGLVQPGGSLRLSCAASGFTFSSSAMSWVRQAPGKGLEWVSAISTNGNYTYYADSVKGRFTISRDNSKNTLYLQMNSLRAEDTAVYYCAKGWLGNFDYWGQGTLVTVSS
VL: B1 VL with S31R, Y50I, Y51G, S54T, T92G, G93Q, R94V
notes: also called clone 23C10

Kd [6]: 0.436 nM
Kd [7]: 0.023 nM
Kd [8]: 0.035 nM
binding result [9]: no binding
B6: 29B11 Fab (Fab, V domains shown)
VH: B5 VH with S32Y, S52I, T53G, N54S, N56G, Y57I, L101F, N103G, D105N
VL: B1 VL with S30T, Y50N, Y51V, A52G, S54R, T92G, G93I, R94M, I95L
notes: also called clone 29B11

binding result [10]: binds
B7: 2F11 Fab (Fab, V domains shown)
VH: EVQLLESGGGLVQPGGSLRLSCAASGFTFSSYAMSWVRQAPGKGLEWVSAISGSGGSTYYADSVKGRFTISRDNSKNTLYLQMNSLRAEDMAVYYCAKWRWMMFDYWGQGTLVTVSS
VL: B1 VL with Y51G, I59V, T92G, G93Q, R94Y, I95T
notes: Fab fragment; also called clone 2F11

binding result [11]: binds
B8: 4B8 Fab (Fab, V domains shown)
VH: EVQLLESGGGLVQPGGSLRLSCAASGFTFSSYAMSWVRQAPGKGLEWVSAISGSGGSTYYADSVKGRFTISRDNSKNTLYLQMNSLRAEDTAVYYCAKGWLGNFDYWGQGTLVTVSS
VL: B1 VL with Y51G, T92G, G93Q, R94V
notes: Fab fragment; also called anti-murine FAP clone 4B8

Kd [6]: 0.655 nM
Kd [7]: 0.522 nM
Kd [8]: 0.034 nM
binding result [9]: no binding
B9: 22A3 Fab (Fab, V domains shown)
VH: B5 VH with S32Y, S52I, T53G, N54S, N56S, Y57I, L101F, N103G, D105N
VL: B1 VL with S30T, Y50N, Y51V, A52G, S54R, T92G, G93I, R94M, I95L
notes: also called clone 22A3
